T1: MmNAC17 (Malus micromalus, UniProt D9ZJ94 1-336)
T1 sequence: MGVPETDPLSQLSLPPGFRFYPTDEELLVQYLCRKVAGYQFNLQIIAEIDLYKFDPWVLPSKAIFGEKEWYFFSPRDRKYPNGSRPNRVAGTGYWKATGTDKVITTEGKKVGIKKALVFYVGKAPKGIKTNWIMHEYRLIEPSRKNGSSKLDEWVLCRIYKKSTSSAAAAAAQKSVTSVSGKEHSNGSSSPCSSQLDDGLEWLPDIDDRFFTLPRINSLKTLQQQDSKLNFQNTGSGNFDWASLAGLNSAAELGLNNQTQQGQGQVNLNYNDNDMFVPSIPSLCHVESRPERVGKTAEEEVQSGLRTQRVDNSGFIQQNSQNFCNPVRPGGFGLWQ

B1: proMmF3H probe (dsDNA)
DNA 1: AGGTGAAGATCACGTGGCGCAATTTC
DNA 2: GAAATTGCGCCACGTGATCTTCACCT
B2: proMmLAR probe (dsDNA)
DNA 1: GAAGATATCACACGTAGCCAAAAGCG
DNA 2: CGCTTTTGGCTACGTGTGATATCTTC

Target: T1, MmNAC17
Experiment: EMSA; binding disrupted by unlabeled competitor (100x); Chemiluminescence EMSA kit (Beyotime); binding buffer, salt, pH and temperature not stated
Conditions: protein: recombinant; tags: His (pET-30a, Ni-NTA purified); chain copies: 2; blunt

Binder	binding result
B1	binds
B2	binds
